# From publication PMC3426546
# Target: ECTV-IL18BP expressed and secreted from mammalian cells, biotinylated (ectromelia virus)
# Assay: SPR
substance,measurement,value
IL18 D110A (ligand),Kd,0.2 nM
same,koff,3e-05 s⁻¹
same,kon,260000 M⁻¹ s⁻¹
